Substrate in the data set: O=C1OC2(c3ccc(O[C@@H]4O[C@H](CO)[C@H](O)[C@H](O)[C@H]4O)cc3Oc3cc(O[C@@H]4O[C@H](CO)[C@H](O)[C@H](O)[C@H]4O)ccc32)c2ccccc21
Nature of the data set: purified protein. The class given is biochemical, Saccharolobus solfataricus. To be noted: no indole, pH 6.5, 37 °C, 50 mM sodium phosphate, 5% DMSO.

The record followed here is article PMC3381609.

Changes are numbered by the printed parent chain. Names may count otherwise.

B1: β-glycosidase (β-gly) (Saccharolobus solfataricus P2; W33G) (protein)
chain: MYSFPNSFRFGWSQAGFQSEMGTPGSEDPNTDGYKWVHDPENMAAGLVSGDLPENGPGYWGNYKTFHDNAQKMGLKIARLNVEWSRIFPNPLPRPQNFDESKQDVTEVEINENELKRLDEYANKDALNHYREIFKDLKSRGLYFILNMYHWPLPLWLHDPIRVRRGDFTGPSGWLSTRTVYEFARFSAYIAWKFDDLVDEYSTMNEPNVVGGLGYVGVKSGFPPGYLSFELSRRAMYNIIQAHARAYDGIKSVSKKPVGIIYANSSFQPLTDKDMEAVEMAENDNRWWFFDAIIRGEITRGNEKIVRDDLKGRLDWIGVNYYTRTVVKRTEKGYVSLGGYGHGCERNSVSLAGLPTSDFGWEFFPEGLYDVLTKYWNRYHLYMYVTENGIADDADYQRPYYLVSHVYQVHRAINSGADVRGYLHWSLADNYEWASGFSMRFGLLKVDYNTKRLYWRPSALVYREIATNGAITDEIEHLNSVPPVKPLRH
For the protein B1, the Km was 1080 ± 30 µM and the catalytic constant (kcat) is 0.00675 ± 0.00004 s⁻¹.

B2: β-glycosidase (β-gly) (Saccharolobus solfataricus P2) (protein)
chain: B1 chain with G33W
In the case of B2, the Michaelis-Menten constant (Km) stood at 58 ± 4 µM and the turnover number (kcat) was determined as 0.265 ± 0.002 s⁻¹.

For orientation: Km means the substrate concentration at which the rate is half of its maximum. As usually defined, the kcat is the number of substrate molecules converted per active site and unit of time at saturation.
